{"source": "patent US20250257099A1", "about": "(priority 2022, published 2025)", "key": {"[1]": {"biological_target": "SARS-CoV-2 spike (S) glycoprotein (SARS-CoV-2) (UniProt P0DTC2)", "experiment": "cell-based or functional assay"}, "[2]": {"biological_target": "MERS-CoV spike (S) protein (MERS-CoV) (UniProt K9N5Q8)", "experiment": "cell-based or functional assay"}}, "data": [{"substance": "MERS-CoV C-lipopeptide (MERS-CoV S HRC residues 1251-1286, cholesterol-conjugated)", "values": [{"measurement": "IC50, plaque-neutralization test, SARS-CoV-2 infection of Vero E6 cells", "setting": "[1]", "result": 90, "unit": "nM"}, {"measurement": "IC50, plaque-neutralization test, MERS-CoV infection of Vero E6 cells", "setting": "[2]", "result": "< 8", "unit": "nM"}]}]}
